Measurements as given in PMC12650828, “Dual-Mode Aptamer AP1-F Achieves Molecular–Morphological Precision in Cancer Diagnostics via Membrane NCL Targeting”.

These binders were tested against nucleolin (NCL) (Homo sapiens, UniProt P19338 1-710) (assay: MST; MST: 300 nM FAM-aptamer, NCL 1.95 nM-4 uM, binding buffer not specified, 25 C, 15 min; AP1-AP6 and Mut folded in 100 mM KCl, 10 mM K3PO4 pH 7.0; AS1411 in 100 mM NaCl, 10 mM Tris-HCl pH 7.0; cell competition at 4 C, 1 h). Settings: protein: commercial; label: 5'-FAM (amide bond linker); G4.
nucleolin (NCL), sequence (P19338 whole entry): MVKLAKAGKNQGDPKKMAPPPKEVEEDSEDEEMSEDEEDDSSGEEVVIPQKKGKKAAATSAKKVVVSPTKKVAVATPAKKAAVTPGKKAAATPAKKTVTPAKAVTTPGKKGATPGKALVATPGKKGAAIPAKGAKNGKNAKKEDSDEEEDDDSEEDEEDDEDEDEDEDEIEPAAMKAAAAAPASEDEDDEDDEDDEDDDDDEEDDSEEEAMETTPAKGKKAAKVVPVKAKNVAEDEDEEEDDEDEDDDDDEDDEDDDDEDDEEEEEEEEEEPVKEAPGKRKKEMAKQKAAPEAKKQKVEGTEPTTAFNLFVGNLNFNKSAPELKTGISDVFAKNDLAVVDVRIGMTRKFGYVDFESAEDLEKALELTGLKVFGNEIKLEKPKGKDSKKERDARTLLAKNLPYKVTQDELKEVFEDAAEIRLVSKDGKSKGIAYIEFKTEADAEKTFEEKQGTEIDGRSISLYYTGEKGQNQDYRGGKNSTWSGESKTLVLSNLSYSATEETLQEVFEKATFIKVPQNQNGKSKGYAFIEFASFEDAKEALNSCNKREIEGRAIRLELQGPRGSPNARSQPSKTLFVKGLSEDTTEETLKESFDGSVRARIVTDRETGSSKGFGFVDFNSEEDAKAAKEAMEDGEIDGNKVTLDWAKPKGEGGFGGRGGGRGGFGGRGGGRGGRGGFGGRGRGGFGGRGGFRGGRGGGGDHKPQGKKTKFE

Binder	Kd [nM]
GUUAGGGUUUGGGAUUG (structured_RNA) [AP1-F]	474 ± 47.7

Same assay, conditions: protein: commercial; label: 5'-FAM (amide bond linker); G4, loop-length variant

Binder	Kd [nM]
GUUAGGGUUUUGGGAUUG (structured_RNA) [AP2-F]	621 ± 269
GUUAGGGUUUAUGGGAUUG (structured_RNA) [AP3-F]	499 ± 95.5
GUUAGGGUUUAUUGGGAUUG (structured_RNA) [AP4-F]	822 ± 290
GUUAGGGUUUAUUUGGGAUUG (structured_RNA) [AP5-F]	926 ± 140
GUUAGGGUUUAUUAUGGGAUUG (structured_RNA) [AP6-F]	507 ± 132
